These results are taken from publication doi:10.1101/2020.07.29.223594.

The target in one data set is SP1 (Homo sapiens, UniProt P08047 2-785). As to the kind of experiment: EMSA.
Data set [1] concerns the target T1, APOBEC2 (Mus musculus, UniProt Q9WV35 1-224).
T1 sequence: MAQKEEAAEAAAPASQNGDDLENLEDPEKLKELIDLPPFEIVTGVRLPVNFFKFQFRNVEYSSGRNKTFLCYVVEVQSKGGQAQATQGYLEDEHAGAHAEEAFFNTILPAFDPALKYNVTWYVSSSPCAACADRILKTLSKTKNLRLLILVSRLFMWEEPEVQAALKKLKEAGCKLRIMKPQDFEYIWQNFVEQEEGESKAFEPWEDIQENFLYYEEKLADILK
As to the kind of experiment: MST.

The target of data set [2] is T1, APOBEC2. Briefly: MST. The source holds these as a separate data set.

Sequence of SP1 (P08047 2-785): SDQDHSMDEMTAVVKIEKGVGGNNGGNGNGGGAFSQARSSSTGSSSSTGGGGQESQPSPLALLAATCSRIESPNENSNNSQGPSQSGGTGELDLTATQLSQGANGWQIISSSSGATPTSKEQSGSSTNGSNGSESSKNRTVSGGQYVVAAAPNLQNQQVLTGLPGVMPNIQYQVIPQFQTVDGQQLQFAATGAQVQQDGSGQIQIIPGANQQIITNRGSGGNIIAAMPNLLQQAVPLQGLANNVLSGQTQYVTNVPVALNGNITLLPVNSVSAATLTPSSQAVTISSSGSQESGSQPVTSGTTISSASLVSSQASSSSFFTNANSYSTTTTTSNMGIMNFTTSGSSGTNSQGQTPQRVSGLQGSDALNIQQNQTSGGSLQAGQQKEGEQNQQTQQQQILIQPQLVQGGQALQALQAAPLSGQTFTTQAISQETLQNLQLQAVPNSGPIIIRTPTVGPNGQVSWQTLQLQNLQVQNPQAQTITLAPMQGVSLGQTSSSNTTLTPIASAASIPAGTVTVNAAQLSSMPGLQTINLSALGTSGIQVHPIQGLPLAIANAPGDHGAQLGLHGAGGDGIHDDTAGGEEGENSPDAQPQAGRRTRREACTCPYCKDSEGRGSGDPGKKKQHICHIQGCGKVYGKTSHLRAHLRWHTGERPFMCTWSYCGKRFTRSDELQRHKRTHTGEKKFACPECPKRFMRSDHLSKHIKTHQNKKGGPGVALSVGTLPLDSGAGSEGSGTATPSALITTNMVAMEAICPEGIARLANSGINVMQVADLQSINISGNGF

B1: SP/KLF motif dsDNA (dsDNA)
DNA 1: GGCGGCGCGGCCCCGCCCCCTCCTCCGGC
DNA 2: GCCGGAGGAGGGGGCGGGGCCGCGCCGCC
B1: the binding result with SP1 is recorded as “binds”. This molecule gave a Kd with APOBEC2 [1] of 709 ± 186 nM.

B2: A-tract motif dsDNA (dsDNA)
DNA 1: TCTCAAGAAAAAAAAAAAAAGAC
DNA 2: GTCTTTTTTTTTTTTTCTTGAGA
As to B2, the binding result with APOBEC2 [2] was “no binding”.
